Consider one molecule from article PMC11566000.

For the data set, the target named is T1, SloR (purified native) (UniProt I6L923 1-217).
T1 sequence: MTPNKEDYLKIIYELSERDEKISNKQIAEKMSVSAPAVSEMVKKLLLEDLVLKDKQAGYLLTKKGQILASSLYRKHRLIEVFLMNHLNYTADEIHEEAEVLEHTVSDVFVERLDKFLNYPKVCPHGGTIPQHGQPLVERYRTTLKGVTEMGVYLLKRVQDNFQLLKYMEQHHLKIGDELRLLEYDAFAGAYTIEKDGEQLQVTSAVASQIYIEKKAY
Description: BLI. In general terms: Biolayer interferometry detects binding as a change in optical thickness at a sensor tip.

B1: mntH.22.SRE3.WT (dsDNA)
DNA 1: CAGTAATTCTTACAAACTCTTT
DNA 2: AAAGAGTTTGTAAGAATTACTG
Turning to B1, the binding result is listed as “no binding”.
